Reference: the DeepSol protein solubility set

Assay: soluble on expression in E. coli; label from the status in PepcDB or PDB records

Soluble on expression in E. coli, not soluble:
MGSDKIHHHHHHAQSIAKGSTPDFSEARTLIKGALENPETKDDAKTWYVAGFIEDQQFSNERTKQVLGQQPDEPVMYEALGSILPYFEKAYELDQLPNEKGKVKPKFTKDIKGILGANHVYYINGGAYYFDQKDYNKAYDFFEQYLKISDMPMFKGEAVAERDSNFMTVQFYAAVAATQLGDSQKAIAALERAKNTDYRASEVYQYLCYEYEQAKDTVNLEKTLEEGLNKFPEEQYFLMSLINNYIYSNRNEKAIEYLNTAIAKDSNNPQLYDVMGRVYETGLKDYAKAEEYFKKALAINPDYIESLSNLGRVYYNQGVNKQGEANMINDAKQYQEELGKAKEFFKQALPYFEKAHQMKPEEREYMTALRGIYYNLNMGDKFDAIEAEMNK
MGSDKIHHHHHHAQTDPSQLKKEGSDAFNAKNYPVAYAKFSEYLKQTNNQDSAIAYYCGMAADEVKKYAEAVTFFDIAIQKKFNIGNAYARKALALDAMKKTDEYVATLEEGLKVDPDNKTMIKNYGLHYLKAGIAAQKAGKVEEAEECFKKVIPLDHKTYKTNALYSLGVLCYNDGANILKKAAPLANSDADKYAAEKEKADGRFKEAIGYLEEATKVSPEDTKSKTMLSQVQAAMK
MGSDKIHHHHHHAQVKTYKYRVNFRDKAETTYALDKPSAYLSERALERRMKQGLPVDSTDIPVCRSYIDMLVGKGAQLVSKSKWNNTVVVQVSDTSVIDKVAALPFVTAVRKVWTAPDSIPARNANRKKEVTNRVTKSNNYYGDAWRQIAVHHGDSLHAAGFRGKGMQIAVIDAGFYNADEISVFKGMDLLGTRDFVNSHSDIYAENYHGMKVLSCMAANKPNVLVGTAPEASYWLLRSEDDDTEQPVEEDYWAEALEFADSVGVDVVNTSLGYYEFDDTTMNYRYRDLDGHYSLMSHSASLAADKGLVLVCSAGNSGRGTWKKITPPGDAENVITVGAADRNLVNADFSSVGNTTDGRVKPDVMAVGVASAVAGNDGTVSHANGTSFASPTLCGLVACFWQACPWLTAKQVVEAVRNAGDRKEYPDNIYGYGVPDIWKACQIELEKKK
MGSDKIHHHHHHAREAEFKKIKESWTLQADGTQVYRQSKVLTLYTHTAMNRTYGESFITYDPRYQTLQIHESYTRQKDGNIVKTPANALVEVLPSAAANAPAFNALREMVVVHTGLELGATIYLDYSITTKPGYLPGIQICRLLEHSSPVKEYEISITVPRGQHLEYALNNHKEKASVTESEGMKQVSWTLKNLPALSREPQVSVIGGDLPLLTATTEEKPLSFLTSQWQPEGDAGIRALAGKLTAGAKDDKEKVTAIRDYVIDNLYYSSLPLAESGYRIRPAAEVIRSAYGTEAEKANLMAALLKAAGLKAGIGAVCAPSENTASLGVGSIRELFVWTDAGGSQQALSLKGKTPSAVSWQKDYAYVASLTQPFELNLPPVTLRKDYALQPDAANAKDGYLVFTLPVERGSLAGSQYVRFNSKRTSNLLLPGLADESFTYTVDTPAGMEPVTRPMEKKMDNAVGTLTISIRPEGAKTRVIRSLKLKKQMIRPADYAAFRQLMTEYGAVDGLTLVYRKPLP
MGSDKIHHHHHHASCEKDPDMGKLDDNYLVYTNYDKQANFKDFSTFYLADKILVISDSKEPEYLEGEGAEQILAAYTENMEAKGYQPAADKESADLGIQVSYIASTYYFTGYTQPEWWWGYPGYWGPSYWGNWGGWYYPYAVTYSYSTNSFITEMVNLKADEGEGKKLPVVWTSYLTGFETGSKAINRTLAIEAVNQSFTQSPYLTNK
MGSDKIHHHHHHATTLLVSCSNQQTQTKAITVSDTTLLSAEEFSQKIKKEPNALILDVRTPEEFSEAHIANATNVNWKDNFASGITEVNKNQPVLVYCLSGGRSASASDYLRKNGYTQVYELQGGLLKWQASNFEVVADTVTAAQDSGMTLQQFEALLVTDKYVLIDFYATWCGPCKMMEPALEDIAATMSDKVIVVRIDVDKNEELSKHFEVESLPTVQIYKNKKLVWEDIGYKTKKQLVSQLK
MGSDKIHHHHHHCDETELDQTVTNQVNPQKEEDSRIVFNSAKEFYNTLDTLSYMTYEEQTEWIRASGIKYPLYKDLEFCEDEIMTEMPRAFQALFNHKMEMQINDTVIAFEKGNMYVKSIKEKILPVPVLYGQVGVNQEESEVTTRTVYETKYGKIGTSYQYEFKIPEGKSKYKYVHELKSVIIKENLPPYKSWSNLFLVLKLEWKGKKKWKVAEKEERNISIDLNVCKRNLAKVKYNQEIRIDVQNMDSKSHSINIEGYIIHEVVGIPSTKMFNGWSYPLVEWQPR
MGSDKIHHHHHHDANGVKIGVITDMSGSYADLSGKGSVLAAQMAVEEFGGKALGKPVTVLSADHQNKADIASSLARRWFDTDGVDMVIDFPNSSTALAVQEVAKQKQKIDIVSTGGAMALTNQNCSPTGFHWAWDTYSVSYPLVKRMIDQGRNSWYYITVDYAFGQSLEADFRKAVDVSGGKNVGSTKHPLNASDFSSPVVAASASKANVVVLANAGNDMINGVKAAGEFGLVKAGQTVITPSTFITDIKSLGLNTAQGLTYVDPFRLDLDEKSKDFVERYYKRHKAYPTHGQIGVYSGVLHYLKAVEAAKTVDGPAVADKMRALPVNDAFVHNGKVRADGRMVHDMYLAQAKTPAESKGPWDLVKYIATIPGDEAFRPLSASECALVKK
MGSDKIHHHHHHDETVYDKLPADDFGQSTAELNALIGNSHNTMKKFWTEYMHLSECSGSMAVTPTRRGGDWYDGGQYREIYMHTWTSQTSRVKSAWKAATEAIGTCNEAIRKLQNSEILTEEEKAQDVADLRGVRAFWIYVMMDYWGNIPLLTEFHPTDKVFPGNSSRQEVFDWLIQEVEEIKDICPPATTENYGSFTQGAAYSLLAKLYLNAEAWGVTFSGNAYQKVIDNCDKVMAMGYILEPNWKDNFSVTNENSKEAILAATFSSSDTGNDGNVKNELHNNTLHYKDYLSLGITASGTWNGICAQPEYVRLFDEEDARLDGTFLTGLMIDKSTGKPIMTDHNNELNHTIDVNMIPGMEYDGTNWSAVEQHDGARCFKWEFASDLTSSMGNDFHIFRLADIYLMKAEALLRGGGSVSEATALVNTIRERGYGNSDHNYATVTLKEVQLERRLELAWEVYSRQDDIRFGCFTTGMWPQSNCERKADDYLKLLPVSQDAWQVNPNLKQNPGYAAFSK
MGSDKIHHHHHHEEEEQKPAYGKIDVAVSVTLPQPESVNTLTRAGGPYTDTDIKNADLLIFDKDAKFMERVKVENDRLVITGTGINFTVRLDATSERRIIHLVANGRSADGTSDRLNFGDITPGMTENAAISSLQTASLEHVDEGESTLLNHVMPLVMWGRFALNGINIVTKAEGVKLLRSTACIQVKKGNGGGNTGLDDFVIEGITVHQGACHGFLAPTDCTGEVNTPVVTNPVTGGIYLDYRKGWVNGAEPSLYIYERNCSASDYMGVVIAARYKGKKGYYKVVMNGNDGSPLNIVRNHRYIVTVVGVNGPGYESPDIAVASAPSNALKVELTDEDTDLPCIVADGQYRMASSNNVFSLYGKTGVTTSATGVDICTVYSSRGIQPVLTLPDDCNWLTNLSAQALGSNKYKITGDFTSAANDAVATTLTMTCDNLSQPVRVSWNPIISDQKDTDSFVLDLVGSTDRNWTVRVLNPTSPGWLFLHPSAASPGALPGDGMVSELSSKYSSHAYLHVAFGASRRGTVQMTSASSGETVARKIVVIQ
MGSDKIHHHHHHEIRENLLGNYSDRVLVVSHRADWRNAPENSLQGIRNCIDMGVDMVEIDLKKTKDGHLVIMHDKTINRTMTGKGNAEDYTLAELKAMRLKNGAGCKTRHQIPTLEEVMLLCKGKIMVNIDKGYDYFQEAYAVLEKTGTIDHCVIKAGLPYERVKAENGDVLDKVIFMPIVNLHKEGAEKIINDYQSHMKPTAYELVFNDDNEEILRLIRKVRDSGAKLFINSLWPELCGGHDDDRAVELHQPDESWGWILNQGAKLIQTDRPALLLEYLRKKKLHD
MGSDKIHHHHHHLAQLYFYYSSMNAGKSTSLLQSSYNYRERGMNTLVMTASIDDRYGKGKVASRIGIETEAQVFSSQDDLTQMISDVHQATPLSCVLVDECQFLSKEQVKQLTHVVDNIDIPVLCYGLRTDFQGELFSGSHYLLAWADKLVELKTICHCGRKANMVVRLDGDGKVMREGEQVAIGGNESYESVCRKHFREFIWD
MGSDKIHHHHHHLDDYDDDIYDMQAGMPFNAALATVVTPSEIPGEAMIESDNDGVAYVVNPDKLTRFETNNPGQRIFYTYINADNPTGDASKKGPFISIDYLQKILTKRMDTLKENEEDIYGHDGINLITPIMGKTHLTLMFQILGFNSNIKHRISLVATEGTVPDANGYMAVELRHNAEGDRQEYPSSGYVSFPLLDVPGYKEGKLQGFKIKMNTINNGEETVTVSYNKSKSTNFPFIQKGISNTKIK
MGSDKIHHHHHHLGPPTPLGLRAAPHNVTNLAQTPLAERLRSLVDTVQHNERTLRRFQSVELRLIGAQDFASFLDTLFGQLPREFSLAGVTLWLDDRAPMLRELLEPVALRALDQPRLRTSREGGLAAQGLCEDGRPWLGTPRELDDTVRRAFFGDAEQVPASAILLPLASGDTVGGYLWLGSDDAARFAQGMATDILERFASIVTASLDNVAHRERLKQLGMTDSLTGLANRRYFDERLREEVMRAVRYRMPVACLFIDIDSFKRINDTYGHQTGDRALAAVAACVRQQVRLGDTVARYGGEEFAALLQGDRADALTVAERVRLAVERLALQDDHGERIALTVSIGVAARMVSGTPTEAAMLGGAIIEEADRAMYQAKRNGRNRIEALVNASGDHTAG
MGSDKIHHHHHHLIPFFLDLVSRTDEARRAFELHPVVTHAAANGMTLQRYRRLLLELYHVVWHFNTVSAAGASRLQDTHKQVRYFLYEHMHEESGHEEWVLADLEQMGVTRDIALNHRPSHYTLALVGYYYYAADRKHPASVLGMLYALEVIASVYGGTLTSAVKESLLLDDERGVSFISSHATLDAEHMADLKTVLDTIEDDEAKDAIEEAVLLTFNHLTHIMVEAHLEEGDISGAPAVNAEHFAISAEKAAA
MGSDKIHHHHHHLIYIYYPELRLFNGDEITQKFVKGEVVEAHEVLRLKHSIATYRSRLCDISWFMRCLNEPIARQANQEDSCTGRFWEGRFKSQALLDEAAVLACMAYVDLNPIRAKMASTPEQSDHTSIQLRIRAALKGEQPNNLLPFIGNERQFQPKGITFALKDYLELVDDTGRIIRNDKRGSVSANSAKLLTRLNISQENWLKLTTEFGKLFHGPVGTLQELTSYCEHLEKRRRHFASCCQHLKAG
MGSDKIHHHHHHLKILKFQIKDFRNLKKIEYQPSPGLNIFYGENAQGKTNILEALYYLATGNSFRSNKEKTLISYESSSLQVQARYNHQERIIDSSITYGLDGKVFRINKKRASYNHTDRLRIILFSPDDLYLVKGAPYKRRFFLDFLLGQISNEYLFKLDNYRKILKKRNLLLKKEETNSRSFAIINDIFMDLAAQLLISRLNLINVLDEAIQEIYPQINNDGGQLKIRYALSFPVDSGKINLDILKDSLKKQVESETEKEKKRKTTLLGPHLDDMHIYLNEQMARLFASQGQQRNIVICLKLAEIMTFRKIKGFFPIFLLDEVLAELDDSRSNKLLKYLAQSPFQSFLTSVKLEKFEVMDASIFLVKDGCLLGKE
MGSDKIHHHHHHLSADHNAFRRALTERWGKAFGEPVIHEDPRTRSLCFGAPGVQSSMRTSDPLELDLPYTRAMMSFQLFCPDPKDILIVGLGGGSLSKYCFHKFPSARVTTVEIDERVIALRDAFFIPPESERFRIVHADAAAYLPDKVGLADVILLDGFDASGLPASLSSQYFYDCCHAALRDEGVLVANLLSSDPRLGAHLDRIHRACHGKLFRTMARREGNTIAIGIRQATWPGWPDLYARAEAITASTGLDLCRYVKKMERHHRVEPVSEHPSSDTLAVEQNR
